Laboratory results as given in the supplement of paper PMC10126150.
± gives the standard deviation of the averaged measurements.

Test system: ATP
Assay: switch fluorescence ratio, 500 uM ATP over buffer (Cy3 cluster intensity, sum of 5 cycles each) (fold (ratio)); higher = stronger signal-on switching upon ATP binding; sequences stand for … in TCGTCGGCAGCGTCAGATGTGTATAAGAGACAGTTTTTTTTTTTTTTTTTTTTTTTTT…TC
Settings: aptamer strand: ATP DNA aptamer (quencher-CACCTGGGGGAGTATTGCGGAGGAAGG + anchor), 100 nM annealed; ATP concentration: 500 uM
Outline: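 Between each of five buffer/ATP cycles, the flow-cell was stripped with NaOH and re-annealed. Each cycle imaged Cy3-labelled switching-strand clusters, annealed to 100 nM quencher-labelled ATP aptamer on a modified Illumina MiSeq flow-cell, first in selection buffer and then after 15 min with 500 uM ATP at 22 °C. The fluorescence ratio is summed target-cycle over summed buffer-cycle Cy3 intensity per cluster, averaged per switch-domain sequence, with clusters outside 100-1000 RFU excluded.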
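Further: ATP exposure 15 min at 22 °C before imaging.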

Sequence | switch fluorescence ratio
CGTTTAGCGT | 1 ± 0.0018
CGTTTAGGTA | 0.982 ± 0.048
CGTTTAGTAG | 1.03 ± 0.013
CGTTTATGTG | 0.9953 ± 0.0089
CGTTTCGCCC | 1.04 ± 0.038
CGTTTCGTGT | 0.972 ± 0.066
CGTTTGGAAC | 1.01 ± 0.055
CGTTTGGGAG | 0.9739 ± 0.0061
CGTTTGGGGT | 1.002 ± 0.0071
CGTTTGTTCT | 1.03 ± 0.061
CGTTTGTTGC | 0.974 ± 0.034
CGTTTGTTGG | 0.984 ± 0.028
CGTTTTATAG | 0.9973 ± 0.0071
CGTTTTATGC | 0.947 ± 0.059
CGTTTTTCTG | 0.968 ± 0.013
CTAAAATTAA | 1.01 ± 0.031
CTAAACTAGG | 1.02 ± 0.013
CTAAAGGAAG | 1.01 ± 0.029
CTAAAGGACT | 0.9989 ± 0.0015
CTAAATTCGT | 0.987 ± 0.08
CTAACATCCG | 1.06 ± 0.025
CTAACGCCTG | 1.03 ± 0.07
CTAACGGAAT | 1.7 ± 0.34
CTAACGGGTA | 1 ± 0.018
CTAAGATCGG | 1 ± 0.02

Sequence | switch fluorescence ratio
CTAAGCTTTG | 1 ± 0.035
CTAAGGCCTG | 0.97 ± 0.072
CTAAGGCGAT | 1.06 ± 0.12
CTAAGGGGCA | 1 ± 0.019
CTAAGGGGTG | 1.022 ± 0.0057
CTAAGGGTTC | 0.999 ± 0.015
CTAAGGTGTT | 1.325 ± 0.011
CTAAGTAGAT | 1.02 ± 0.028
CTAAGTTTGA | 1.03 ± 0.037
CTAATCAGCT | 0.977 ± 0.019
CTAATGACGT | 1.01 ± 0.015
CTAATGGAGC | 0.98 ± 0.017
CTAATTTGCC | 1.02 ± 0.084
CTAATTTTTG | 1 ± 0.024
CTACAAGTTA | 1.048 ± 0.0027
CTACACGAGA | 1.09 ± 0.019
CTACATGCCC | 1.15 ± 0.18
CTACCGGATT | 1.07 ± 0.012
CTACGAAGTA | 1.01 ± 0.015
CTACTCTCGC | 1.15 ± 0.019
CTACTGGGGA | 1.05 ± 0.036
CTACTGTGGG | 0.9651 ± 0.006
CTACTTAGGG | 1.03 ± 0.036
CTACTTGAGT | 0.985 ± 0.019
CTAGACCAGG | 1.01 ± 0.014

Sequence | switch fluorescence ratio
CTAGACGTTT | 1.01 ± 0.047
CTAGAGGGGA | 1.14 ± 0.2
CTAGCAACGT | 1.03 ± 0.067
CTAGGAAGGT | 1.01 ± 0.033
CTAGGAGGCG | 1.03 ± 0.053
CTAGGATCGG | 0.993 ± 0.057
CTAGGATGTA | 0.986 ± 0.015
CTAGGCAGGG | 1.01 ± 0.005
CTAGGCTCAA | 1.004 ± 0.004
CTAGGGCTGA | 0.972 ± 0.013
CTAGGGGGAT | 0.9962 ± 0.0043
CTAGGGGTTT | 1 ± 0.034
CTAGGTGGGG | 1.02 ± 0.025
CTAGGTGTGA | 1.07 ± 0.017
CTAGGTTTGA | 0.987 ± 0.019
CTAGTCGTAC | 1.03 ± 0.068
CTAGTCTGAA | 0.982 ± 0.031
CTAGTGGTGA | 0.972 ± 0.015
CTAGTTAGCT | 1.015 ± 0.0097
CTAGTTTTTG | 0.997 ± 0.049
CTATAAACGG | 1.03 ± 0.054
CTATAACGTT | 1.01 ± 0.005
CTATACCGTT | 1.003 ± 0.0048
CTATATGGAC | 1.05 ± 0.017
CTATCACAGG | 2.01 ± 0.08

Sequence | switch fluorescence ratio
CTATCAGCTA | 1.1 ± 0.03
CTATCCGTGC | 1.287 ± 0.0028
CTATCTGCGG | 1.04 ± 0.046
CTATGAATGG | 0.975 ± 0.057
CTATGAATTA | 0.984 ± 0.024
CTATGCAGTG | 1.03 ± 0.024
CTATGCGGGA | 1.01 ± 0.04
CTATGGGGTT | 0.977 ± 0.011
CTATGGGTTT | 1.024 ± 0.0032
CTATGTCAAC | 1.06 ± 0.023
CTATTAAGTA | 0.9802 ± 0.0064
CTATTACGG | 1.04 ± 0.075
CTATTATCTG | 1.01 ± 0.024
CTATTCTAGG | 1.019 ± 0.0083
CTATTCTTGG | 0.9524 ± 0.006
CTATTTAGAT | 0.984 ± 0.011
CTATTTATCA | 1.02 ± 0.053
CTATTTGACT | 0.9576 ± 0.0028
CTATTTTACT | 0.9873 ± 0.0073
CTATTTTATT | 1.01 ± 0.068
CTATTTTGGG | 0.993 ± 0.026
CTCAACGTTC | 1.088 ± 0.006
CTCAATCTTG | 0.971 ± 0.043
CTCACGGGGC | 1.16 ± 0.16
CTCAGACGGA | 1 ± 0.043

Sequence | switch fluorescence ratio
CTCAGCCCGT | 1.03 ± 0.095
CTCAGGGGAG | 1.03 ± 0.047
CTCAGTATCT | 0.972 ± 0.041
CTCAGTTATG | 1.0176 ± 0.00079
CTCATAGACA | 1.03 ± 0.08
CTCATATTGT | 1.006 ± 0.0076
CTCATCGGTT | 1.007 ± 0.0011
CTCATTGGCC | 0.983 ± 0.0025
CTCCATATTA | 1.057 ± 0.0068
CTCCCACACG | 2.35 ± 0.36
CTCCCCGGGT | 3 ± 1.1
CTCCGATGTG | 1.57 ± 0.061
CTCCTCGTCA | 1.17 ± 0.036
CTCCTTTATT | 1.04 ± 0.037
CTCGCATGCA | 1.2 ± 0.035
CTCGCGACGA | 1.06 ± 0.019
CTCGCGGCGG | 1.03 ± 0.034
CTCGCTCGGT | 1.01 ± 0.019
CTCGCTCGTT | 1.03 ± 0.018
CTCGGAACCT | 1.84 ± 0.22
CTCGGAATGG | 1.08 ± 0.043
CTCGGAATTT | 1.04 ± 0.037
CTCGGATAGC | 1.02 ± 0.045
CTCGGCGCGC | 1.024 ± 0.0044
CTCGGCTTGT | 1.05 ± 0.044

Sequence | switch fluorescence ratio
CTCGGGGGCT | 0.98 ± 0.027
CTCGGGTGGG | 0.985 ± 0.037
CTCGTATTTA | 0.976 ± 0.021
CTCGTCAGGG | 0.995 ± 0.029
CTCGTCCGAC | 1.53 ± 0.11
CTCGTGGTTT | 0.981 ± 0.024
CTCGTTGAAA | 0.9779 ± 0.0065
CTCTAAAAAG | 1.06 ± 0.05
CTCTAATATC | 1.47 ± 0.091
CTCTAATTTT | 1.013 ± 0.0052
CTCTAGCCTC | 1.176 ± 0.0012
CTCTAGTGGC | 1.1 ± 0.074
CTCTCGACAC | 1.69 ± 0.078
CTCTGAAGCT | 1.06 ± 0.017
CTCTGGACAG | 0.9718 ± 0.0089
CTCTGGATTT | 0.97272 ± 0.00011
CTCTGGGAGG | 0.995 ± 0.021
CTCTGGGGCG | 1.01 ± 0.023
CTCTGGGGTA | 1.05 ± 0.031
CTCTGGGGTC | 1.05 ± 0.048
CTCTGGGTTG | 1.07 ± 0.13
CTCTTACTTT | 0.9862 ± 0.0084
CTCTTGTTTT | 0.988 ± 0.018
CTCTTTACGG | 1 ± 0.04
CTCTTTAGCG | 1.01 ± 0.025

Sequence | switch fluorescence ratio
CTCTTTCGAT | 1.03 ± 0.03
CTGAAAGGGC | 1.03 ± 0.066
CTGAAGGAGG | 0.971 ± 0.037
CTGAAGTTGT | 1.01 ± 0.032
CTGAATGGGG | 0.971 ± 0.01
CTGACGGCTT | 1.056 ± 0.0068
CTGAGAAGAG | 0.993 ± 0.041
CTGAGATCAG | 1.01 ± 0.026
CTGAGCCGGA | 1.08 ± 0.16
CTGAGGAGAC | 1.05 ± 0.042
CTGAGGCTGG | 0.9933 ± 0.0021
CTGAGGGGAT | 1.1 ± 0.047
CTGAGGGGCT | 0.982 ± 0.02
CTGAGTGTGG | 0.989 ± 0.028
CTGAGTTTGA | 1 ± 0.013
CTGAGTTTGG | 1.07 ± 0.061
CTGATAAAGT | 0.9922 ± 0.0082
CTGATCAATG | 1.1 ± 0.02
CTGATCAGCA | 1.03 ± 0.04
CTGATCAGTT | 1.02 ± 0.017
CTGATGCGCG | 1 ± 0.016
CTGATTATCT | 0.989 ± 0.02
CTGCATGTGC | 2.14 ± 0.11
CTGCGGATGG | 1.058 ± 0.0066
CTGCGTAGGG | 1.04 ± 0.029

Sequence | switch fluorescence ratio
CTGCGTCTAT | 1.08 ± 0.025
CTGCTAGATG | 0.983 ± 0.051
CTGCTAGCGG | 1.02 ± 0.065
CTGCTGAGGG | 0.99 ± 0.013
CTGCTTGTGA | 1.02 ± 0.026
CTGGAATTCA | 1.02 ± 0.049
CTGGAGGTTG | 0.998 ± 0.041
CTGGCAGTGG | 1.05 ± 0.054
CTGGCATGGG | 0.979 ± 0.014
CTGGCGTATG | 0.997 ± 0.036
CTGGCTGGCA | 0.995 ± 0.01
CTGGGAAGAG | 1.01 ± 0.028
CTGGGACTTG | 1 ± 0.013
CTGGGAGATT | 1.02 ± 0.039
CTGGGAGGGA | 0.991 ± 0.035
CTGGGAGGTT | 0.97 ± 0.05
CTGGGCACAT | 1.05 ± 0.015
CTGGGCGTGC | 0.997 ± 0.03
CTGGGGAGGT | 0.9946 ± 0.0044
CTGGGGATTT | 1.02 ± 0.013
CTGGGGGAAG | 0.985 ± 0.034
CTGGGGGGGG | 1 ± 0.038
CTGGGGGTCA | 1.04 ± 0.026
CTGGGGGTGC | 1.06 ± 0.017
CTGGGGGTTC | 1.01 ± 0.018
